Assay results published in article PMC12636033, “Chemical Engineering of Transcription Factors Uncovered Cell-Permeable μMax Modulators”.

B1: dBr_Jan07_27761 (dsDNA)
DNA 1: ATATCGACCTTTTATTGAAAACCGGGAGTCTCACGTGTCTGTGTTCCGTTGTCCGTGCTG
DNA 2: CAGCACGGACAACGGAACACAGACACGTGAGACTCCCGGTTTTCAATAAAAGGTCGATAT
B2: dBr_Jan07_17989 (dsDNA)
DNA 1: GTCACGTGAATGCGACCCGCCAATTGGAAATTAAATGTCTGTGTTCCGTTGTCCGTGCTG
DNA 2: CAGCACGGACAACGGAACACAGACATTTAATTTCCAATTGGCGGGTCGCATTCACGTGAC
B3: dBr_Jan07_20507 (dsDNA)
DNA 1: GTGCCCGATTGTCTACGGCACCACGTGTGTTACCAGGTCTGTGTTCCGTTGTCCGTGCTG
DNA 2: CAGCACGGACAACGGAACACAGACCTGGTAACACACGTGGTGCCGTAGACAATCGGGCAC
B4: dBr_Jan07_30456 (dsDNA)
DNA 1: GGCGTTGTCAGGAAGGATTGGCTGTCGTCAACACGTGTCTGTGTTCCGTTGTCCGTGCTG
DNA 2: CAGCACGGACAACGGAACACAGACACGTGTTGACGACAGCCAATCCTTCCTGACAACGCC
B5: dBr_Jan07_17404 (dsDNA)
DNA 1: TTGCGTGTTGTGTCTAATATCCAAACTACACCACGTGTCTGTGTTCCGTTGTCCGTGCTG
DNA 2: CAGCACGGACAACGGAACACAGACACGTGGTGTAGTTTGGATATTAGACACAACACGCAA
B6: dBr_Jan07_27753 (dsDNA)
DNA 1: TTTTCATACGAACTTCGAGCTCCCCACGTGGTTCTTGTCTGTGTTCCGTTGTCCGTGCTG
DNA 2: CAGCACGGACAACGGAACACAGACAAGAACCACGTGGGGAGCTCGAAGTTCGTATGAAAA
B7: dBr_Jan07_28926 (dsDNA)
DNA 1: CGCAGCCATTACCGCGTGGGAGTATTCGCCCGTACGGTCTGTGTTCCGTTGTCCGTGCTG
DNA 2: CAGCACGGACAACGGAACACAGACCGTACGGGCGAATACTCCCACGCGGTAATGGCTGCG
B8: dBr_Jan07_27306 (dsDNA)
DNA 1: ACTATACAGTTTATTCATACACGGGTGCCTGCACGTGTCTGTGTTCCGTTGTCCGTGCTG
DNA 2: CAGCACGGACAACGGAACACAGACACGTGCAGGCACCCGTGTATGAATAAACTGTATAGT
B9: dBr_Jan07_38389 (dsDNA)
DNA 1: CAAGCCTATCGCGGCCAATCGGTAAGCACGTGACTAGTCTGTGTTCCGTTGTCCGTGCTG
DNA 2: CAGCACGGACAACGGAACACAGACTAGTCACGTGCTTACCGATTGGCCGCGATAGGCTTG
B10: dBr_Jan07_37497 (dsDNA)
DNA 1: CCAGTTAGTAACACGTGTCCACTCCTTGTCGTACAGGTCTGTGTTCCGTTGTCCGTGCTG
DNA 2: CAGCACGGACAACGGAACACAGACCTGTACGACAAGGAGTGGACACGTGTTACTAACTGG
B11: dBr_Jan07_13904 (dsDNA)
DNA 1: CGCTGCCCCATATTTGTCATGCGTTTGCGGCACGTGGTCTGTGTTCCGTTGTCCGTGCTG
DNA 2: CAGCACGGACAACGGAACACAGACCACGTGCCGCAAACGCATGACAAATATGGGGCAGCG
B12: dBr_Jan07_10488 (dsDNA)
DNA 1: ACCTCGGACATGCACATTTGTCTTAAACCACGTGCGGTCTGTGTTCCGTTGTCCGTGCTG
DNA 2: CAGCACGGACAACGGAACACAGACCGCACGTGGTTTAAGACAAATGTGCATGTCCGAGGT
B13: dBr_Jan07_15488 (dsDNA)
DNA 1: TAGTAGTCGTTGCTAGCTGCAAGGAATGGCGCACGTGTCTGTGTTCCGTTGTCCGTGCTG
DNA 2: CAGCACGGACAACGGAACACAGACACGTGCGCCATTCCTTGCAGCTAGCAACGACTACTA
B14: dBr_Jan07_23485 (dsDNA)
DNA 1: CAGTGTAGAAAGTGAACACGTGTGACACGCCTGGTTGTCTGTGTTCCGTTGTCCGTGCTG
DNA 2: CAGCACGGACAACGGAACACAGACAACCAGGCGTGTCACACGTGTTCACTTTCTACACTG
B15: dBr_Jan07_24960 (dsDNA)
DNA 1: CGCAAAGCATTATCAACCTGGGTGCCTATCACGTGGGTCTGTGTTCCGTTGTCCGTGCTG
DNA 2: CAGCACGGACAACGGAACACAGACCCACGTGATAGGCACCCAGGTTGATAATGCTTTGCG
B16: dBr_Jan07_09181 (dsDNA)
DNA 1: CACATTATTTCACACGTGGACGGCACCCACAAACACGTCTGTGTTCCGTTGTCCGTGCTG
DNA 2: CAGCACGGACAACGGAACACAGACGTGTTTGTGGGTGCCGTCCACGTGTGAAATAATGTG
B17: dBr_Jan07_14484 (dsDNA)
DNA 1: CTGCAGTTCTACTGTATCCACGACATAGAGACACGTGTCTGTGTTCCGTTGTCCGTGCTG
DNA 2: CAGCACGGACAACGGAACACAGACACGTGTCTCTATGTCGTGGATACAGTAGAACTGCAG
B18: dBr_Jan07_15832 (dsDNA)
DNA 1: TGCTAGGTGCGGGGCGTGCCATTGTACCACGTGGCTGTCTGTGTTCCGTTGTCCGTGCTG
DNA 2: CAGCACGGACAACGGAACACAGACAGCCACGTGGTACAATGGCACGCCCCGCACCTAGCA
B19: dBr_Jan07_02651 (dsDNA)
DNA 1: TGCATAACGACCGGCACGTGCCTTTCATATGTATCTGTCTGTGTTCCGTTGTCCGTGCTG
DNA 2: CAGCACGGACAACGGAACACAGACAGATACATATGAAAGGCACGTGCCGGTCGTTATGCA
B20: dBr_Jan07_34042 (dsDNA)
DNA 1: GCCGAAAGTCCCCCACGTGGTCAGTAAAAGAGAAGAGTCTGTGTTCCGTTGTCCGTGCTG
DNA 2: CAGCACGGACAACGGAACACAGACTCTTCTCTTTTACTGACCACGTGGGGGACTTTCGGC
B21: dBr_Jan07_18911 (dsDNA)
DNA 1: ACAAACCCCGCACGTGCCTTCGCCCCCTCCTATGCGGTCTGTGTTCCGTTGTCCGTGCTG
DNA 2: CAGCACGGACAACGGAACACAGACCGCATAGGAGGGGGCGAAGGCACGTGCGGGGTTTGT
B22: dBr_Jan07_03394 (dsDNA)
DNA 1: ATGGACCAATTGCGCGGAATGACGTGTCGCGCACGTGTCTGTGTTCCGTTGTCCGTGCTG
DNA 2: CAGCACGGACAACGGAACACAGACACGTGCGCGACACGTCATTCCGCGCAATTGGTCCAT
B23: dBr_Jan07_06714 (dsDNA)
DNA 1: TTCCGCGTGGACGTGACATCGTAGACGATTACCCACGTCTGTGTTCCGTTGTCCGTGCTG
DNA 2: CAGCACGGACAACGGAACACAGACGTGGGTAATCGTCTACGATGTCACGTCCACGCGGAA
B24: dBr_Jan07_02368 (dsDNA)
DNA 1: CTGTAGAACTGGCATCTTCAATCCACCGCGTGGTGAGTCTGTGTTCCGTTGTCCGTGCTG
DNA 2: CAGCACGGACAACGGAACACAGACTCACCACGCGGTGGATTGAAGATGCCAGTTCTACAG
B25: dBr_Jan07_14817 (dsDNA)
DNA 1: AGCGAGAGGCTGCTCACTCGTGGCAACACCCACGTGGTCTGTGTTCCGTTGTCCGTGCTG
DNA 2: CAGCACGGACAACGGAACACAGACCACGTGGGTGTTGCCACGAGTGAGCAGCCTCTCGCT
B26: dBr_Jan07_15201 (dsDNA)
DNA 1: TTGCCTGGGATTAGATTCTACGCTCACGATGCACGTGTCTGTGTTCCGTTGTCCGTGCTG
DNA 2: CAGCACGGACAACGGAACACAGACACGTGCATCGTGAGCGTAGAATCTAATCCCAGGCAA
B27: dBr_Jan07_17844 (dsDNA)
DNA 1: AATGGACTCGTTTTTTTTGCGTTATTAGACCACGCGGTCTGTGTTCCGTTGTCCGTGCTG
DNA 2: CAGCACGGACAACGGAACACAGACCGCGTGGTCTAATAACGCAAAAAAAACGAGTCCATT
B28: dBr_Jan07_05071 (dsDNA)
DNA 1: CGTGTAACCTTCAGGCACGTGGTTTAATCGTTATCCGTCTGTGTTCCGTTGTCCGTGCTG
DNA 2: CAGCACGGACAACGGAACACAGACGGATAACGATTAAACCACGTGCCTGAAGGTTACACG
B29: dBr_Jan07_02206 (dsDNA)
DNA 1: GGCAGTCGGTCGTTCCAGATATTAGGATCTCCACGTGTCTGTGTTCCGTTGTCCGTGCTG
DNA 2: CAGCACGGACAACGGAACACAGACACGTGGAGATCCTAATATCTGGAACGACCGACTGCC
B30: dBr_Jan07_41742 (dsDNA)
DNA 1: AGAGTCATTGGGGAGGCAAAATTCCCACGTGTATCGGTCTGTGTTCCGTTGTCCGTGCTG
DNA 2: CAGCACGGACAACGGAACACAGACCGATACACGTGGGAATTTTGCCTCCCCAATGACTCT
B31: dBr_Jan07_23034 (dsDNA)
DNA 1: TCCGTACGGTCTCGTTCCATAGCTTGCTACCATGTGGTCTGTGTTCCGTTGTCCGTGCTG
DNA 2: CAGCACGGACAACGGAACACAGACCACATGGTAGCAAGCTATGGAACGAGACCGTACGGA
B32: dBr_Jan07_07015 (dsDNA)
DNA 1: CGATACTGTATCGCATGGACAGCACGTGCAATTAGGGTCTGTGTTCCGTTGTCCGTGCTG
DNA 2: CAGCACGGACAACGGAACACAGACCCTAATTGCACGTGCTGTCCATGCGATACAGTATCG
B33: dBr_Jan07_11048 (dsDNA)
DNA 1: CGAAATCTTACATGCTCTTGGGTCTAAGACGCACGTGTCTGTGTTCCGTTGTCCGTGCTG
DNA 2: CAGCACGGACAACGGAACACAGACACGTGCGTCTTAGACCCAAGAGCATGTAAGATTTCG

What follows are binders tested against WT Max (Homo sapiens, UniProt P61244-2 13-93, M65Nle, norleucine written as M; other non-natural residues written as X) (assay: PBM; 50-200 nM protein; PBS, 2% milk, BSA, salmon testes DNA, 0.02% Triton X-100). Settings: chain copies: 2; label: surface-attached array probe.
Chain of WT Max (P61244 other isoform, or with tags, fused parts or gaps M65Nle): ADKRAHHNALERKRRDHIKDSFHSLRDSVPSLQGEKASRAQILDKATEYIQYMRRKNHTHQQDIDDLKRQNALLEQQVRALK

Binder	binding signal
B1	3.44 robust z of log adjusted intensity (ours), mean of two arrays
B2	4.17 robust z of log adjusted intensity (ours), mean of two arrays
B3	4.13 robust z of log adjusted intensity (ours), mean of two arrays
B4	3.62 robust z of log adjusted intensity (ours), mean of two arrays
B5	4.24 robust z of log adjusted intensity (ours), mean of two arrays
B6	5.1 robust z of log adjusted intensity (ours), mean of two arrays
B7	3.92 robust z of log adjusted intensity (ours), mean of two arrays
B8	3.99 robust z of log adjusted intensity (ours), mean of two arrays
B9	3.67 robust z of log adjusted intensity (ours), mean of two arrays
B10	4.27 robust z of log adjusted intensity (ours), mean of two arrays
B11	3.73 robust z of log adjusted intensity (ours), mean of two arrays
B12	4.16 robust z of log adjusted intensity (ours), mean of two arrays
B13	3.81 robust z of log adjusted intensity (ours), mean of two arrays
B14	4.26 robust z of log adjusted intensity (ours), mean of two arrays
B15	4.08 robust z of log adjusted intensity (ours), mean of two arrays
B16	3.99 robust z of log adjusted intensity (ours), mean of two arrays
B17	5.27 robust z of log adjusted intensity (ours), mean of two arrays

Binder	binding signal
B18	3.84 robust z of log adjusted intensity (ours), mean of two arrays
B19	3.82 robust z of log adjusted intensity (ours), mean of two arrays
B20	4.32 robust z of log adjusted intensity (ours), mean of two arrays
B21	3.79 robust z of log adjusted intensity (ours), mean of two arrays
B22	3.89 robust z of log adjusted intensity (ours), mean of two arrays
B23	4.26 robust z of log adjusted intensity (ours), mean of two arrays
B24	5.5 robust z of log adjusted intensity (ours), mean of two arrays
B25	4.16 robust z of log adjusted intensity (ours), mean of two arrays
B26	3.45 robust z of log adjusted intensity (ours), mean of two arrays
B27	3.78 robust z of log adjusted intensity (ours), mean of two arrays
B28	4.32 robust z of log adjusted intensity (ours), mean of two arrays
B29	3.71 robust z of log adjusted intensity (ours), mean of two arrays
B30	4.07 robust z of log adjusted intensity (ours), mean of two arrays
B31	3.64 robust z of log adjusted intensity (ours), mean of two arrays
B32	3.94 robust z of log adjusted intensity (ours), mean of two arrays
B33	5.56 robust z of log adjusted intensity (ours), mean of two arrays
